The EC50 is the concentration at which the effect is half-maximal.

The values below come from patent publication US20230064703A1.

Sequences and labels used below:
B1: chimeric antibody 274C7H2 (human IgG1) (antibody, V domains shown)
VH: QVQLQQSGAELAKPGASVKLSCKASGYTFTSYWMHWVKQRPGQGLEWIGYINPSSGYTKYNQKFKDKATLTADKSSSTAYMQLSSLTYEDSAVYYCARNPSYDYYAMDYWGQGTSVTVSS
VL: QAVVTQESALTTSPGETVTLTCRSSTGAVTTSNYANWVQEKPDHLFTGLIGGTNNRAPGVPARFSGSLIGDKAALTITGAQTEDEAIYFCALWYSNHFIFGSGTKVTVLR
B2: chimeric antibody 204C10G12 (human IgG1) (antibody, V domains shown)
VH: QVQLQQPGAELVKPGASVKMSCKASGYTFTSYWITWVKQRPGQGLEWIGDIYPGSDSTNYNEKFKNKATLTVDTSSSTAYMQLSSLTSEDSAVYYCARGDDFWYFDVWGTGTTVTVSS
VL: DVLMTQTPLSLPVSLGDQASISCRSSQSIVHSNGNTYLEWYLQKPGQSPKLLIYKVSNRFSGVPDRFSGSGSGTDFTLKISRVEAEDLGVYYCFQGSHVPLTFGAGTKLELKR
B3: chimeric antibody 225A8D9 (human IgG1) (antibody, V domains shown)
VH: QVQLQQSGPELVKPGASVKISCKASGYAFSSSWMNWVKQRPGKGLEWIGRIYPGDGNINYDGKFKGEATLTADKSSSTAYIQLSSLTSEDSAVYFCARSAWLGKTYVMDYWGQGTSVTVSS
VL: EIVVTQSPAITAASLGQKVTITCSASSSVTYMNWYQQKSGTSPKPWIYEISKLASGVPAHFSGSGSGTSYSLTISSLEAEDAAIYYCQQWNFPFTFGSGTKVEIRR
B4: chimeric antibody 384H3H11 (human IgG1) (antibody, V domains shown)
VH: QVQLKQSGPGLVQPSQSLSITCTVSGFSLTSYGVHWVRQSPGKGLEWLGVIWSGGSTDYNAAFISRLSISKDNSKSQVFFKMNSLQANDTAIYYCARIGLRSFAYWGQGTLVTVSA
VL: DIVMTQSPSSLTVTAGEKVTMSCKSSQSLLNSGNQKNYLTWYQQKPGQPPKLLIYWASTRESGVPDRFTGSGSGTDFTLTISSVQAEDLAVYYCQNDYSYPFTFGSGTKLEIKR
B5: chimeric antibody 172H7B9(H-La) (human IgG1) (antibody, V domains shown)
VH: QVTLKESGPGILQSSQTLSLTCSFSGFSLSPSGMGVTWIRQPSGKGLEWLAHIYWDDVKRYNPSLKSRLTISKDTSRNQVFLKITGVDTADTATYYCARRGSYSDYGGWSFDVWGTGTTVTVSS
VL: DIVMTQSPSSLSVSAGEKVTMSCKSSQSLFNSGNQKNYLAWYQQKPGQPPKLLIYGASTRESGVPDRFTGSGSGSDFTLTISSVQAEDLAVYYCQNDHSYPPTFGSGTKLEIKR
B6: chimeric antibody 223F12C4 (human IgG1) (antibody, V domains shown)
VH: QVQLQQSGAELVKPGASVKVSCKASGYSFTSYWIHWVKQRPGQGLEWIGRIHPSDGDIDHNEKFKGKATLTVDKSSSTAYMQLTSLTSEDSAVYYCLCYIMDYWGQGTSVTVSS
VL: DIQMNQSPSSLSASLGDTIAITCHASQNINVWLSWYQQKPGNIPKLLIYKAAKLQTGVPSRFSGSGSGTGFTLTISSLQPEDIATYYCHQGQDYPLTFGAGTKLELKR
B7: anti-GITR mouse monoclonal antibody 223H11H1 (antibody, V domains shown)
VH: EVQLQQSGPELVKPGASVKISCKASGYTFTAHYMNWVKKSQGKSLEWIGDINPDNGIIRYNQKFKDKATLTVDKSSSTVFLEFRSLASEDSAVYYCARREALDYWGQGSSVTVSS
VL: DVLMTQIPLSLTVSLGDQASISCRSSQSIVYSNGKVYLNWYQQKPGQSPKLLIYKVSDRFSGVPDRFSGSGSGTDFTLKINRVEAEDLGVYYCLQGSHIPWTFGGGTKLEIK
B8: anti-GITR mouse monoclonal antibody 225H7D12 (antibody, V domains shown)
VH: QVQLQQSGAEVMKPGASVKLSCKTTGYRFTGYWIEWVKQRPGHGLEWIGEILPGSGVSNNNEKFRDKATFTADTSSNTAYIQLSSLTTDDSAIYYCARKASYYTMDYWGQGTSVTVSS
VL: QIVLTQSPAIMSASLGERVTMTCTASSSVSSFYFHWYQQKPGSSPKLWIYSISNLASGVPTRFSGSGSGTSYSLTISSMEAEDAATYYCHQYHRSPRTFGGGTKLEIK
B9: anti-GITR mouse monoclonal antibody 274C7H2 (antibody, V domains shown)
VH: QVQLQQSGAELAKPGASVKLSCKASGYTFTSYWMHWVKQRPGQGLEWIGYINPSSGYTKYNQKFKDKATLTADKSSSTAYMQLSSLTYEDSAVYYCARNPSYDYYAMDYWGQGTSVTVSS
VL: QAVVTQESALTTSPGETVTLTCRSSTGAVTTSNYANWVQEKPDHLFTGLIGGTNNRAPGVPARFSGSLIGDKAALTITGAQTEDEAIYFCALWYSNHFIFGSGTKVTVL
B10: anti-GITR mouse monoclonal antibody 204C10G12 (antibody, V domains shown)
VH: QVQLQQPGAELVKPGASVKMSCKASGYTFTSYWITWVKQRPGQGLEWIGDIYPGSDSTNYNEKFKNKATLTVDTSSSTAYMQLSSLTSEDSAVYYCARGDDFWYFDVWGTGTTVTVSS
VL: DVLMTQTPLSLPVSLGDQASISCRSSQSIVHSNGNTYLEWYLQKPGQSPKLLIYKVSNRFSGVPDRFSGSGSGTDFTLKISRVEAEDLGVYYCFQGSHVPLTFGAGTKLELK
B11: anti-GITR mouse monoclonal antibody 45F1F3 (antibody, V domains shown)
VH: DVQLQESGPGLVKPSQSLSLTCTVTGYSITIDYAWNWIRQFPGNKLEWMGYISNSGYTSYNPSLKSRISFTRDTSKNQFFLQLNSVTPEDSATYYCTRSGHYDLFDYWGQGTTLTVSS
VL: DVVMTQAPLTLSVTIGQPASISCKSSQSLFDRDGKTYLSWLLERPGQSPKRLIYLVSNLDSGVPDRFTGSGSGTDFTLKISRVEAEDLGVYYCWQGTHFPYTFGGGTKVEMK
B12: anti-GITR mouse monoclonal antibody 225A8D9 (antibody, V domains shown)
VH: QVQLQQSGPELVKPGASVKISCKASGYAFSSSWMNWVKQRPGKGLEWIGRIYPGDGNINYDGKFKGEATLTADKSSSTAYIQLSSLTSEDSAVYFCARSAWLGKTYVMDYWGQGTSVTVSS
VL: EIVVTQSPAITAASLGQKVTITCSASSSVTYMNWYQQKSGTSPKPWIYEISKLASGVPAHFSGSGSGTSYSLTISSLEAEDAAIYYCQQWNFPFTFGSGTKVEIR
B13: anti-GITR mouse monoclonal antibody 384H3H11 (antibody, V domains shown)
VH: QVQLKQSGPGLVQPSQSLSITCTVSGFSLTSYGVHWVRQSPGKGLEWLGVIWSGGSTDYNAAFISRLSISKDNSKSQVFFKMNSLQANDTAIYYCARIGLRSFAYWGQGTLVTVSA
VL: DIVMTQSPSSLTVTAGEKVTMSCKSSQSLLNSGNQKNYLTWYQQKPGQPPKLLIYWASTRESGVPDRFTGSGSGTDFTLTISSVQAEDLAVYYCQNDYSYPFTFGSGTKLEIK
B14: anti-GITR mouse monoclonal antibody 223F12C4 (antibody, V domains shown)
VH: QVQLQQSGAELVKPGASVKVSCKASGYSFTSYWIHWVKQRPGQGLEWIGRIHPSDGDIDHNEKFKGKATLTVDKSSSTAYMQLTSLTSEDSAVYYCLCYIMDYWGQGTSVTVSS
VL: DIQMNQSPSSLSASLGDTIAITCHASQNINVWLSWYQQKPGNIPKLLIYKAAKLQTGVPSRFSGSGSGTGFTLTISSLQPEDIATYYCHQGQDYPLTFGAGTKLELK
B15: humanized antibody 45F1F3 VH1.3 + VL1.1 (antibody, V domains shown)
VH: QVQLQESGPGLVKPSQTLSLTCTVTGYSITIDYAWNWIRQPPGKGLEWMGYISNSGYTSYNPSLKSRVTISRDTSKNQFFLKLSSVTAADTAVYYCTRSGHYDLFDYWGQGTTVTVSS
VL: DVVMTQSPLSLPVTLGQPASISCKSSQSLFDRDGKTYLSWLLQRPGQSPRRLIYLVSNLDSGVPDRFSGSGSGTDFTLKISRVEAEDVGVYYCWQGTHFPYTFGGGTKVEIK
B16: humanized antibody 45F1F3 VH1.4 + VL1.1 (antibody, V domains shown)
VH: DVQLQESGPGLVKPSQTLSLTCTVTGYSITIDYAWNWIRQPPGKGLEWMGYISNSGYTSYNPSLKSRITFSRDTSKNQFFLKLSSVTAADTAVYYCTRSGHYDLFDYWGQGTTVTVSS
VL: DVVMTQSPLSLPVTLGQPASISCKSSQSLFDRDGKTYLSWLLQRPGQSPRRLIYLVSNLDSGVPDRFSGSGSGTDFTLKISRVEAEDVGVYYCWQGTHFPYTFGGGTKVEIK
B17: humanized antibody 225H7D12 VH1.1 + VL1.2 (antibody, V domains shown)
VH: QVQLVQSGAEVKKPGASVKVSCKTTGYRFTGYWIEWVRQAPGQGLEWIGEILPGSGVSNNNEKFRDRATMTADTSISTAYMELSRLRSDDTAVYYCARKASYYTMDYWGQGTLVTVSS
VL: DIQMTQSPSSLSASVGDRVTITCTASSSVSSFYFHWYQQKPGKAPKLWIYSISNLASGVPSRFSGSGSGTSYTLTISSLQPEDFATYYCHQYHRSPRTFGGGTKLEIK
B18: humanized antibody 225H7D12 VH1.3 + VL1.2 (antibody, V domains shown)
VH: QVQLVQSGAEVKKPGASVKVSCKASGYRFTGYWIEWVKQAPGQGLEWIGEILPGSGVSNNNEKFRDRATMTADTSINTAYMELSRLRSDDTAVYYCARKASYYTMDYWGQGTLVTVSS
VL: DIQMTQSPSSLSASVGDRVTITCTASSSVSSFYFHWYQQKPGKAPKLWIYSISNLASGVPSRFSGSGSGTSYTLTISSLQPEDFATYYCHQYHRSPRTFGGGTKLEIK
B19: humanized antibody 45F1F3 VH1.1 + VL1 (antibody, V domains shown)
VH: QVQLQESGPGLVKPSQTLSLTCTVTGYSITIDYAWNWIRQPPGKGLEWIGYISNSGYTSYNPSLKSRVTFSRDTSKNQFSLKLSSVTAADTAVYYCTRSGHYDLFDYWGQGTTVTVSS
VL: DVVMTQSPLSLPVTLGQPASISCKSSQSLFDRDGKTYLSWFQQRPGQSPRRLIYLVSNLDSGVPDRFSGSGSGTDFTLKISRVEAEDVGVYYCWQGTHFPYTFGGGTKVEIK
B20: humanized antibody 270C5C10 VH1.2 + VL1 (antibody, V domains shown)
VH: QVQLVQSGAEVKKPGASVKVSCKASGYTFTDNYMNWVRQAPGQSLEWIGDINPNNGGSRYKEKFKDRATLTVDTSIRTAYMELSRLRSDDTAVYYCANPGSYGFAYWGQGTLVTVSS
VL: DVVMTQSPLSLPVTLGQPASISCKSSQSLLDSDGRTYLNWFQQRPGQSPRRLIYLVSQLDSGVPDRFSGSGSGTDFTLKISRVEAEDVGVYYCWQGTHFPWTFGGGTKLEIK
B21: humanized antibody 270C5C10 VH1.4 + VL1 (antibody, V domains shown)
VH: QVQLVQSGAEVKKPGASVKVSCKASGYTFTDNYMNWARQSPGQSLEWIGDINPNNGGSRYKEKFKDRATLTVDTSIRTAYMELSRLRSDDTAVYYCANPGSYGFAYWGQGTLVTVSS
VL: DVVMTQSPLSLPVTLGQPASISCKSSQSLLDSDGRTYLNWFQQRPGQSPRRLIYLVSQLDSGVPDRFSGSGSGTDFTLKISRVEAEDVGVYYCWQGTHFPWTFGGGTKLEIK

human GITR expressed on Cho-K1 cells (human), sequence (Q9Y5U5 26-241): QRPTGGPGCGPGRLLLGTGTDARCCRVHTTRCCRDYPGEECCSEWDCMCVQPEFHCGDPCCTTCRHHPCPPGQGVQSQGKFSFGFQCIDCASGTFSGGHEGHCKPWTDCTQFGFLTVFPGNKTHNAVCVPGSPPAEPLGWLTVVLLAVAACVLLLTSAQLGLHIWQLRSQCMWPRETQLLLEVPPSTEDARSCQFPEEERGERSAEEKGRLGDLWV

One experiment concerns the target human GITR expressed on Cho-K1 cells (human) (UniProt Q9Y5U5). As to the kind of experiment: FACS, chimeric antibody on GITR/Cho-K1 cells, geometric mean, 4-parameter fit. Background: In flow cytometry, cells or beads pass a laser one at a time.
B1 had an EC50 of 331 µg/mL.

Turning to B2, the EC50 amounted to 19400 µg/mL.

On to B3, for which the EC50 stood at 0.252 µg/mL.

The molecule B4 came in with an EC50 of 219 µg/mL.

The molecule B5 showed an EC50 of 0.0499 µg/mL.

With B6, the EC50 is 1.59 µg/mL.

A further experiment has the same target. Briefly: FACS, Cho-K1 cells expressing human GITR, mouse mAb, iFluor 647 anti-mouse IgG detection.
As for B7, the EC50 turned out to be 0.931 ng/mL.

As to B8, the EC50 stood at 0.522 ng/mL.

Molecule B9 came in with an EC50 of 140 ng/mL.

Molecule B10 yielded an EC50 of 0.199 ng/mL.

In the case of B11, the EC50 was 0.508 ng/mL.

In the case of B12, the EC50 turned out to be 2.6 ng/mL.

B13 registered a half-maximal effective concentration (EC50) of 4.97 ng/mL.

B14: the EC50 was found to be 0.455 ng/mL.

For the next experiment the target is unchanged. Briefly: FACS binding assay with GITR/Cho-K1, humanized antibody.
The molecule B15 had an EC50 of 0.106 µg/mL.

Molecule B16 yielded an EC50 of 0.0704 µg/mL.

On to B17, for which the EC50 worked out at 0.0755 µg/mL.

The molecule B18 came in with an EC50 of 0.082 µg/mL.

B19 came in with an EC50 of 0.107 µg/mL.

Molecule B20 registered an EC50 of 0.0424 µg/mL.

B21 came in with an EC50 of 0.0558 µg/mL.
